Holding throughout (test): EMSA; Gel-shift buffer not given (as described in ref. 6); TnsD stored in 500 mM KCl, 50 mM Tris-HCl pH 8.0, 1 mM EDTA, 2 mM DTT, 25% glycerol
Details in all cases: protein: recombinant; tags: intein-chitin tag, cleaved with DTT
For orientation: Mobility shift assays separate free from complexed probe on a gel.

One data set addresses T1, TnsD P147L (Escherichia coli (transposon Tn7), UniProt P13991 1-508, P147L).
T1 sequence: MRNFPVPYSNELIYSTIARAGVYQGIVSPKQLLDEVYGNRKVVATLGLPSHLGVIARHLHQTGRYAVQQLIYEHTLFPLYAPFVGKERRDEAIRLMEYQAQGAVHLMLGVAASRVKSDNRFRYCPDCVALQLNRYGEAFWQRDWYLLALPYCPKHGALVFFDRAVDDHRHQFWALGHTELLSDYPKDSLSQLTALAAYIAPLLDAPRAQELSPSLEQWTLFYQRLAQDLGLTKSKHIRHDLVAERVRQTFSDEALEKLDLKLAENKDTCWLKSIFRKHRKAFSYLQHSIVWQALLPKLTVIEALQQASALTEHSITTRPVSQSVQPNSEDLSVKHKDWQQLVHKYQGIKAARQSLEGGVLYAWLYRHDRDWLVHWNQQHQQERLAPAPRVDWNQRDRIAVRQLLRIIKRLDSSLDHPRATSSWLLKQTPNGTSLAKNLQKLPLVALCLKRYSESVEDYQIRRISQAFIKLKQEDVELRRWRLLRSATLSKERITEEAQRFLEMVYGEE

In the next data set the target is T2, TnsD M96I (Escherichia coli (transposon Tn7), UniProt P13991 1-508, M96I).
T2 sequence: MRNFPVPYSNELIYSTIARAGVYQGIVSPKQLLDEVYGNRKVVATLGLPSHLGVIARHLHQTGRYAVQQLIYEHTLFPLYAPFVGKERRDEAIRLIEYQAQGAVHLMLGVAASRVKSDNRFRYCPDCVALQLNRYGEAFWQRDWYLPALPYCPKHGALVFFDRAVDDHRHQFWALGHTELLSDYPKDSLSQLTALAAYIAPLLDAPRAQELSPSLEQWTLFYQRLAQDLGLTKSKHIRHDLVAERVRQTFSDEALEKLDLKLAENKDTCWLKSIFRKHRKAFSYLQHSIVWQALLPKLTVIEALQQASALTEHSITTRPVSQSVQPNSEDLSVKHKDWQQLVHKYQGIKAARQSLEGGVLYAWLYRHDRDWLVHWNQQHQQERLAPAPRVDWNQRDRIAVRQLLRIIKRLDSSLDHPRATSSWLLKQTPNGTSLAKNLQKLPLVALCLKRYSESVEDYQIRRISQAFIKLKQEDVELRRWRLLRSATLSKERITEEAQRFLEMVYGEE

The target in another data set is T3, TnsD A497I (Escherichia coli (transposon Tn7), UniProt P13991 1-508, A497I).
T3 sequence: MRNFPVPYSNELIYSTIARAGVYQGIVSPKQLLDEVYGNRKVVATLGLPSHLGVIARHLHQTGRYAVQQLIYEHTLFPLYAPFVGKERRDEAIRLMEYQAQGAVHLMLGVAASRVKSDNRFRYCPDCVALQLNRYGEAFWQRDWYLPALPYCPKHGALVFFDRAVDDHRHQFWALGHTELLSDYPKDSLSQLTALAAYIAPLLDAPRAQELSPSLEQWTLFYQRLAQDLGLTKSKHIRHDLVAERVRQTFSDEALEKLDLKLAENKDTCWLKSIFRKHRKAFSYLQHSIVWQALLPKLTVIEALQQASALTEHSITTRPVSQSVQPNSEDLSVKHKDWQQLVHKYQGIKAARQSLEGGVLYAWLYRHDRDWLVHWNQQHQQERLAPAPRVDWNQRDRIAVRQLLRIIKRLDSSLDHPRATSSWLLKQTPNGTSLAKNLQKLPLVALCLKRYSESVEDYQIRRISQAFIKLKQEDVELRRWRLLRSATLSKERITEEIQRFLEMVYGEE

Another data set concerns the target T4, TnsD A486H (Escherichia coli (transposon Tn7), UniProt P13991 1-508, A486H).
T4 sequence: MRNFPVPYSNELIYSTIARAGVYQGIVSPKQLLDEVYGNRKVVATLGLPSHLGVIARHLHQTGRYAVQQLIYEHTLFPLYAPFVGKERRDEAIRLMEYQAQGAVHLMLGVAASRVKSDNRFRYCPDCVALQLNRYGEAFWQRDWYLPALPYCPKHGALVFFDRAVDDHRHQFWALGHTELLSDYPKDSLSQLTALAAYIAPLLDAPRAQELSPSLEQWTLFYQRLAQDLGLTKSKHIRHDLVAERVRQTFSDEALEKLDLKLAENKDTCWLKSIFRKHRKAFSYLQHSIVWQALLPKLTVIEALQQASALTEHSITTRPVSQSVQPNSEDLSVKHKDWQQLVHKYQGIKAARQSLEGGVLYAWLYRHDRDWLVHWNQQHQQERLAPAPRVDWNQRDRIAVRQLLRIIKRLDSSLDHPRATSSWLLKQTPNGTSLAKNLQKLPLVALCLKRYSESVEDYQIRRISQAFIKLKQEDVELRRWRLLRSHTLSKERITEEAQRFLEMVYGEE

B1: attTn7 wt (+23 to +58) (dsDNA)
DNA 1: CCGCGTAACCTGGCAAAATCGGTTACGGTTGAGTAA
DNA 2: TTACTCAACCGTAACCGATTTTGCCAGGTTACGCGG
On to B1, for which the binding signal in the data set with TnsD P147L is 0.07 relative to wt; with TnsD M96I, 0.3 relative to wt; with TnsD A497I, 0.05 relative to wt; with TnsD A486H it was 0.1 relative to wt.

The record behind these values is PMC2918618, “Characterization of the TnsD-attTn7 complex that promotes site-specific insertion of Tn7” (Mobile DNA, 2010).
